Measured values published in patent US20240076390A1.

Key:
[1] = target: Recombinant Human Axl Protein Axl-tag 5 (human) (UniProt P30530); test: competition ELISA on immobilized Axl-tag 5; unlabeled antibody 50 ug/mL; competitor Biot-M77-297b81.1.1 1 ug/mL
[2] = target: Recombinant Human Axl Protein Axl-tag 5 (human) (UniProt P30530); test: competition ELISA on immobilized Axl-tag 5; unlabeled antibody 50 ug/mL; competitor Biot-M77-297b81.1.1 1 ug/mL (signal is of the biotinylated antibody)
[3] = target: Recombinant Human Axl Protein Axl-tag 5 (human) (UniProt P30530); test: competition ELISA on immobilized Axl-tag 5; unlabeled antibody 50 ug/mL; competitor Biot-v77-2a37.1 1 ug/mL
[4] = target: Recombinant Human Axl Protein Axl-tag 5 (human) (UniProt P30530); test: competition ELISA on immobilized Axl-tag 5; unlabeled antibody 50 ug/mL; competitor Biot-v77-2a37.1 1 ug/mL (signal is of the biotinylated antibody)

Chain of UniProt P30530 (P30530 26-451): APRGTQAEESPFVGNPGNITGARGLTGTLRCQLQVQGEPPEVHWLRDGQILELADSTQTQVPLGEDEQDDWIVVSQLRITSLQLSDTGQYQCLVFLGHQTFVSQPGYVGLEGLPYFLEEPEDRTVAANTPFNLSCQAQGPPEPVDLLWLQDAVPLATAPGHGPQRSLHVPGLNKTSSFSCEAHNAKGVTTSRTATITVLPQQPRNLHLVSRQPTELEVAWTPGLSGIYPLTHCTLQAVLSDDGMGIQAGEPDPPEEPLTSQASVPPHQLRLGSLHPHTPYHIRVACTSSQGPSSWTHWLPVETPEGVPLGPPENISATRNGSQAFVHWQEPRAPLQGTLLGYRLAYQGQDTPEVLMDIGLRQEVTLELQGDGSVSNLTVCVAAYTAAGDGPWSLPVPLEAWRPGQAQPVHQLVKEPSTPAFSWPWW

% competition [1]: 1.5% | OD (650 nm) [2]: 2.13 OD (650 nm) | % competition [3]: 3.3% | OD (650 nm) [4]: 1.81 OD (650 nm)
Substance: AXL(C89E7) rabbit anti-human Axl monoclonal antibody (Cell Signaling)
